Source: patent publication US20250009931A1 (GEL4MED, INC., priority 2021, published 2025)
Square brackets hold non-standard residues; d marks the D form. Ends that are not written are not given here.

Columns and labels:
[1] = Net charge and isoelectric point of peptide; assay type: physicochemical; conditions: pH 7
Source text: The peptide may be purified. For example, the peptide may be lyophilized. […] Other peptides are within the scope of the disclosure.
Exemplary peptides having a charge of +5 to +9 include […](d)[…], […](d)[…], and […](d)[…]. In other embodiments, the purified peptide may be substantially neutral. […] Net charge may be selected by peptide design. Design of electrostatic charge in the peptide hydrogel may allow control of charge interaction with cell membrane and proteins.

[2] = cited from earlier work

Row | Compound | net charge [1] | pKa [2]
1 | VEVSVSVEVPPTEVSVEVEV (VEVSVSVEV[dP]PTEVSVEVEV) | net negative charge | –
2 | O=C(O)C(F)(F)F [trifluoroacetic acid] | – | about 0
